The results in this text go back to patent US6844171 (Harvard, dated 2005).

The target in data set [1] is δ25-60(Y) peptide (regions B+C of the HDAg multimer-forming domain, with C-terminal tyrosine) (hepatitis delta virus (American strain)). Description: CD spectroscopy in PBS at 37° C.
For data set [2], the target named is δ12-49 peptide (regions A+B of the HDAg multimer-forming domain) (hepatitis delta virus (American strain)). Description: CD spectroscopy in PBS at 37° C.
Data set [3] concerns the molecule itself. The data set can be described thus: glutaraldehyde cross-linking, MALDI-TOF mass spectrometry.

In the case of “δ25-60(Y) peptide (regions B+C of the HDAg multimer-forming domain, with C-terminal tyrosine)”, the [θ222]/[θ208] ratio (indicator of coiled-coil formation) in data set [1] was determined as 0.76.
For the molecule GREDILEQWVSGRKKLEELERDLRKLKKKIKKLEEDNP [δ12-49 peptide (regions A+B of the HDAg multimer-forming domain)], the [θ222]/[θ208] ratio (indicator of coiled-coil formation) in data set [2] is 0.79.

B1: recombinant small delta antigen (r-HDAg-S), full length, expressed in E. coli from plasmid pR5δV5 (other)
chain: SRSERRKDRGGREDILEQWVSGRKKLEELERDLRKLKKKIKKLEEDNPWLGNIKGIIGKKDKDGEGAPPAKKLRMDQMEIDAGPRKRPLRGGFTDKERQDHRRRKALENKRKQLSSGGKSLSREEEEELKRLTEEDEKRERRIAGPSVGGVNPLEGGSRGAPGGGFVPSMQGVPESPFARTGEGLDIRGSQGFP
notes: also called r-δAg-S; rδAg-S
As to B1, the “ratio of the masses of the cross-linked species to the monomer” value in data set [3] amounted to 8.1.
